Measurements: the supplement of paper PMC10567573

B1: MATN2 (parent)
chain: FSLKTFKRKSEVERAVKRMRHLST

Variants of: B1
Assay: protein stability index of a GFP-peptide fusion (GPS, HEK-293T) (PSI 1-6); higher = more stable
Conditions: c terminus: a fixed tail appended
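Further: lentivirally expressed fusions sorted by FACS into six bins by GFP to DsRed ratio, PSI derived from sequencing read proportions per bin multiplied by bin number.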

Variant	protein stability index
ASLKTFKRKSEVERAVKRMRHLST [F1A]	3.04
CSLKTFKRKSEVERAVKRMRHLST [F1C]	2.45
DSLKTFKRKSEVERAVKRMRHLST [F1D]	2.77
ESLKTFKRKSEVERAVKRMRHLST [F1E]	2.72
GSLKTFKRKSEVERAVKRMRHLST [F1G]	2.86
HSLKTFKRKSEVERAVKRMRHLST [F1H]	3.6
ISLKTFKRKSEVERAVKRMRHLST [F1I]	2.39
KSLKTFKRKSEVERAVKRMRHLST [F1K]	3.46
LSLKTFKRKSEVERAVKRMRHLST [F1L]	2.19
MSLKTFKRKSEVERAVKRMRHLST [F1M]	2.24
NSLKTFKRKSEVERAVKRMRHLST [F1N]	3.33
PSLKTFKRKSEVERAVKRMRHLST [F1P]	3
QSLKTFKRKSEVERAVKRMRHLST [F1Q]	3.62
RSLKTFKRKSEVERAVKRMRHLST [F1R]	2.37
SSLKTFKRKSEVERAVKRMRHLST [F1S]	2.87
TSLKTFKRKSEVERAVKRMRHLST [F1T]	3.02
VSLKTFKRKSEVERAVKRMRHLST [F1V]	2.56
WSLKTFKRKSEVERAVKRMRHLST [F1W]	1.69
YSLKTFKRKSEVERAVKRMRHLST [F1Y]	3.13
FALKTFKRKSEVERAVKRMRHLST [S2A]	1.8
FCLKTFKRKSEVERAVKRMRHLST [S2C]	1.5
FDLKTFKRKSEVERAVKRMRHLST [S2D]	2.77
FELKTFKRKSEVERAVKRMRHLST [S2E]	2.51
FGLKTFKRKSEVERAVKRMRHLST [S2G]	3.21

Variant	protein stability index
FHLKTFKRKSEVERAVKRMRHLST [S2H]	1.99
FKLKTFKRKSEVERAVKRMRHLST [S2K]	1.95
FLLKTFKRKSEVERAVKRMRHLST [S2L]	1.55
FMLKTFKRKSEVERAVKRMRHLST [S2M]	2.5
FNLKTFKRKSEVERAVKRMRHLST [S2N]	2.84
FPLKTFKRKSEVERAVKRMRHLST [S2P]	2.42
FQLKTFKRKSEVERAVKRMRHLST [S2Q]	3.07
FRLKTFKRKSEVERAVKRMRHLST [S2R]	2.36
FTLKTFKRKSEVERAVKRMRHLST [S2T]	1.99
FVLKTFKRKSEVERAVKRMRHLST [S2V]	3.07
FWLKTFKRKSEVERAVKRMRHLST [S2W]	1.39
FYLKTFKRKSEVERAVKRMRHLST [S2Y]	1.82
FSAKTFKRKSEVERAVKRMRHLST [L3A]	2.94
FSCKTFKRKSEVERAVKRMRHLST [L3C]	1.93
FSDKTFKRKSEVERAVKRMRHLST [L3D]	2
FSEKTFKRKSEVERAVKRMRHLST [L3E]	3.08
FSFKTFKRKSEVERAVKRMRHLST [L3F]	2.23
FSGKTFKRKSEVERAVKRMRHLST [L3G]	2.91
FSHKTFKRKSEVERAVKRMRHLST [L3H]	2.78
FSIKTFKRKSEVERAVKRMRHLST [L3I]	2.56
FSKKTFKRKSEVERAVKRMRHLST [L3K]	3.54
FSMKTFKRKSEVERAVKRMRHLST [L3M]	2.25
FSNKTFKRKSEVERAVKRMRHLST [L3N]	1.98
FSPKTFKRKSEVERAVKRMRHLST [L3P]	2.13

Variant	protein stability index
FSQKTFKRKSEVERAVKRMRHLST [L3Q]	2.23
FSRKTFKRKSEVERAVKRMRHLST [L3R]	3
FSSKTFKRKSEVERAVKRMRHLST [L3S]	2.45
FSTKTFKRKSEVERAVKRMRHLST [L3T]	2.3
FSVKTFKRKSEVERAVKRMRHLST [L3V]	2.11
FSWKTFKRKSEVERAVKRMRHLST [L3W]	3.27
FSYKTFKRKSEVERAVKRMRHLST [L3Y]	2.15
FSLATFKRKSEVERAVKRMRHLST [K4A]	1.69
FSLCTFKRKSEVERAVKRMRHLST [K4C]	1.74
FSLDTFKRKSEVERAVKRMRHLST [K4D]	2.05
FSLETFKRKSEVERAVKRMRHLST [K4E]	1.8
FSLFTFKRKSEVERAVKRMRHLST [K4F]	1.85
FSLGTFKRKSEVERAVKRMRHLST [K4G]	2.28
FSLHTFKRKSEVERAVKRMRHLST [K4H]	2.21
FSLITFKRKSEVERAVKRMRHLST [K4I]	2.21
FSLLTFKRKSEVERAVKRMRHLST [K4L]	1.78
FSLMTFKRKSEVERAVKRMRHLST [K4M]	3.59
FSLNTFKRKSEVERAVKRMRHLST [K4N]	2.39
FSLPTFKRKSEVERAVKRMRHLST [K4P]	2.58
FSLQTFKRKSEVERAVKRMRHLST [K4Q]	2.45
FSLRTFKRKSEVERAVKRMRHLST [K4R]	2.38
FSLSTFKRKSEVERAVKRMRHLST [K4S]	2.09
FSLTTFKRKSEVERAVKRMRHLST [K4T]	2.18
FSLKAFKRKSEVERAVKRMRHLST [T5A]	1.94

Variant	protein stability index
FSLKDFKRKSEVERAVKRMRHLST [T5D]	2.75
FSLKEFKRKSEVERAVKRMRHLST [T5E]	1.47
FSLKFFKRKSEVERAVKRMRHLST [T5F]	2.56
FSLKGFKRKSEVERAVKRMRHLST [T5G]	2.71
FSLKHFKRKSEVERAVKRMRHLST [T5H]	1.91
FSLKIFKRKSEVERAVKRMRHLST [T5I]	2.29
FSLKKFKRKSEVERAVKRMRHLST [T5K]	2.48
FSLKLFKRKSEVERAVKRMRHLST [T5L]	1.58
FSLKMFKRKSEVERAVKRMRHLST [T5M]	2.91
FSLKPFKRKSEVERAVKRMRHLST [T5P]	2.11
FSLKQFKRKSEVERAVKRMRHLST [T5Q]	3.18
FSLKRFKRKSEVERAVKRMRHLST [T5R]	2.48
FSLKSFKRKSEVERAVKRMRHLST [T5S]	2.4
FSLKVFKRKSEVERAVKRMRHLST [T5V]	1.8
FSLKYFKRKSEVERAVKRMRHLST [T5Y]	1.89
FSLKTAKRKSEVERAVKRMRHLST [F6A]	2.87
FSLKTCKRKSEVERAVKRMRHLST [F6C]	2.28
FSLKTDKRKSEVERAVKRMRHLST [F6D]	2.43
FSLKTEKRKSEVERAVKRMRHLST [F6E]	3.27
FSLKTHKRKSEVERAVKRMRHLST [F6H]	2.94
FSLKTIKRKSEVERAVKRMRHLST [F6I]	2.14
FSLKTKKRKSEVERAVKRMRHLST [F6K]	3.47
